Assay results published in article PMC1277818, “Substrate specificity analysis of protein kinase complex Dbf2-Mob1 by peptide library and proteome array screening” (BMC Biochemistry, 2005).

Target: T1, FHHDbf2-H6Mob1TM9 (Saccharomyces cerevisiae, UniProt P22204+P40484)
T1 construct: made in house; host or cells: Hi5 insect cells (baculovirus)
T1 sequence (P22204 1-572): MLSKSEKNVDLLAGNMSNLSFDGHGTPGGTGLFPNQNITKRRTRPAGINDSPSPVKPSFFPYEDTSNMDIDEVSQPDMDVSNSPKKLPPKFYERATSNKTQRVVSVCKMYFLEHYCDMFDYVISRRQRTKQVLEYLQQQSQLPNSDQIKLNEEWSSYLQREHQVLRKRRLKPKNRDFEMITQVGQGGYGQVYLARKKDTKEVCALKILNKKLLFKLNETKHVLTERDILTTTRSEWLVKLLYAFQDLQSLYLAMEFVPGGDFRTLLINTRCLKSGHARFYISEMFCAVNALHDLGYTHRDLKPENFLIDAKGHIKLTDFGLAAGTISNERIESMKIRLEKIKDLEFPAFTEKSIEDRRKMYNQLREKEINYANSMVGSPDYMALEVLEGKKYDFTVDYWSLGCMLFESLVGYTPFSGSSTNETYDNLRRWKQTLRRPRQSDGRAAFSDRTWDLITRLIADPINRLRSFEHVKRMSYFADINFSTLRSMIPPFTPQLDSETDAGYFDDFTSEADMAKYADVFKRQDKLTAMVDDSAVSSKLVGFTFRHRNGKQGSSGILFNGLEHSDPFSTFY
T1 sequence (P40484 1-314 partner): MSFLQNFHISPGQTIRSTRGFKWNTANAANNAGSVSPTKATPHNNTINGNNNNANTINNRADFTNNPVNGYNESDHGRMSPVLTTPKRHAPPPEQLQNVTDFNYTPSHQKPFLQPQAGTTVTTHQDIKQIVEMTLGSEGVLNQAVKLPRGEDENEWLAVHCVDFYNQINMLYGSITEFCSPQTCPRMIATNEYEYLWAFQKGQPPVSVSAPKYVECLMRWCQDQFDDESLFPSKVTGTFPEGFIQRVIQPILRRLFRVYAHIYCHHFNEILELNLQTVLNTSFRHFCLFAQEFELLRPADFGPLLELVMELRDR
Experiment: Yeast proteome chip assay
Format: biochemical
Settings: [γ-33P]ATP, chips in duplicate
Protocol: The relatively low sequence complexity of the Dbf2 phosphorylation motif diminished the power of using genome-wide bioinformatics screens to identify putative substrates. Accordingly, we carried out a proteome array screen to identify putative yeast substrates. […] After taking into account the proteins phosphorylated in the negative controls, 67 proteins were determined to be putative Dbf2-Mob1 substrates (Table 3).
Yeast proteome microarrays were prepared as previously described. Overexpressed GST-tagged yeast proteins were purified from ~4,400 yeast strains and spotted on slides. To determine the optimal amount of kinase to use for probing proteome chips, we performed trial assays as described (J. Ptacek et al., submitted). […] The full proteome array was probed with 4 μl ^FHHDbf2-^H6Mob1^TM9 in 200 μl of DKB supplemented with [γ-^33P]ATP. As a control, ^FHHDbf2(N305A)-^H6Mob1^TM9 was used to probe the proteome array. […] To control for autophosphorylated proteins, the proteome array was probed with 200 μl of DKB supplemented with [γ-^33P]ATP. Proteome chips were assayed in duplicate in each case. Data analysis was performed as described (J. Ptacek et al., submitted). Briefly, signals were analyzed by a computer algorithm designed to normalize background and identify signals as positive if 3 of 4 spots (each protein is spotted twice on each slide and each kinase or control was tested on 2 slides) were 2 standard deviations above background and the fourth spot was 1.5 standard deviations above background.

[1] = Table 3, GST fusion proteins on proteome chip, computer analysis
[2] = Table 4, the 25 proteins with highest signal relative to protein amount

Substance | Slide Signal (after normalization) [1] | Slide Signal (after normalization) [2]
YDR171W: GST fusion yeast protein on proteome chip | 0.442 | 
YNL007C: GST fusion yeast protein on proteome chip | 0.2239 | 
YMR229C: GST fusion yeast protein on proteome chip | 2.6954 | 2.6954
YDL220C: GST fusion yeast protein on proteome chip | 1.0274 | 1.0274
